Source: the Human Domainome abundance scans (Beltran et al. 2025)
± gives the uncertainty stated by the source.

B1: Connector enhancer of kinase suppressor of ras 2, residues 9 to 71; numbered along this chain, Q8WXI2 (parent)
chain: SKWSPSQVVDWMKGLDDCLQQYIKNFEREKISGDQLLRITHQELEDLGVSRIGHQELILEAVD

Variants of: B1
Assay: abundance fitness (aPCA) (normalised: wild type 0, dead -1); higher = more abundant; growth selection in yeast, the domain comes from the species named
Details: Homo sapiens
In the case of V9D, the abundance fitness is reported as -0.66 ± 0.052. V9H showed an abundance fitness of -0.774 ± 0.051. V9R gave an abundance fitness of -0.268 ± 0.025. With V9G the abundance fitness was -0.128 ± 0.031. With V9C the abundance fitness was -0.054 ± 0.039. In the case of V9T, the abundance fitness is reported as -0.11 ± 0.035. V9Y showed an abundance fitness of -0.757 ± 0.076. Work on V9K yielded an abundance fitness of -0.334 ± 0.044. V9F showed an abundance fitness of -0.764 ± 0.081. V9A showed an abundance fitness of -0.064 ± 0.028. In the case of V9M, the abundance fitness is reported as -0.159 ± 0.038. V9E gave an abundance fitness of -0.374 ± 0.036. Work on V9N yielded an abundance fitness of -0.562 ± 0.061. Variant V9Q has an abundance fitness of -0.217 ± 0.044. V9W gave an abundance fitness of -0.863 ± 0.049. For V9P, the abundance fitness was -0.888 ± 0.073. For V9S, the abundance fitness was -0.207 ± 0.027. With V9I the abundance fitness was -0.035 ± 0.03. L15I gave an abundance fitness of -0.446 ± 0.046. In the case of L15Q, the abundance fitness is reported as -0.164 ± 0.035. L15H gave an abundance fitness of -0.781 ± 0.067. Variant L15T has an abundance fitness of -0.427 ± 0.032. L15P showed an abundance fitness of -0.712 ± 0.043. Work on L15C yielded an abundance fitness of -0.552 ± 0.059. For L15E, the abundance fitness was -0.371 ± 0.027. L15A showed an abundance fitness of -0.652 ± 0.034. Variant L15D has an abundance fitness of -0.702 ± 0.05. For L15G, the abundance fitness was -0.675 ± 0.044. L15N gave an abundance fitness of -0.512 ± 0.051. Variant L15S has an abundance fitness of -0.539 ± 0.031. L15R gave an abundance fitness of -0.535 ± 0.037. L15K showed an abundance fitness of -0.48 ± 0.032. With G14C the abundance fitness was -0.34 ± 0.036. Work on G14V yielded an abundance fitness of -0.895 ± 0.053. Work on G14L yielded an abundance fitness of -0.579 ± 0.031. With G14S the abundance fitness was -0.005 ± 0.027. Variant G14Y has an abundance fitness of -1.04 ± 0.11. In the case of G14I, the abundance fitness is reported as -0.922 ± 0.13. For G14R, the abundance fitness was -0.3 ± 0.025. Work on G14K yielded an abundance fitness of -0.264 ± 0.045. With G14W the abundance fitness was -0.986 ± 0.1. Work on G14M yielded an abundance fitness of -0.421 ± 0.043. With G14Q the abundance fitness was -0.196 ± 0.047. In the case of G14H, the abundance fitness is reported as -0.468 ± 0.1. For G14E, the abundance fitness was -0.225 ± 0.034. G14A showed an abundance fitness of -0.41 ± 0.034. With G14F the abundance fitness was -1.06 ± 0.13. In the case of D10P, the abundance fitness is reported as -0.929 ± 0.056. D10K gave an abundance fitness of -0.161 ± 0.039. D10S gave an abundance fitness of -0.127 ± 0.034. In the case of D10E, the abundance fitness is reported as 0.096 ± 0.029. Work on D10R yielded an abundance fitness of -0.176 ± 0.031. D10V showed an abundance fitness of -0.327 ± 0.028. In the case of D10F, the abundance fitness is reported as -0.34 ± 0.041. For D10L, the abundance fitness was -0.256 ± 0.017. D10T gave an abundance fitness of -0.18 ± 0.027. Work on D10M yielded an abundance fitness of -0.169 ± 0.031. Work on D10I yielded an abundance fitness of -0.258 ± 0.042. For D10N, the abundance fitness was -0.087 ± 0.036. For D10G, the abundance fitness was -0.122 ± 0.035. Work on S6A yielded an abundance fitness of 0.036 ± 0.023. S6Y gave an abundance fitness of -0.166 ± 0.034. In the case of S6E, the abundance fitness is reported as -0.033 ± 0.035. With S6G the abundance fitness was -0.052 ± 0.027. S6C showed an abundance fitness of -0.195 ± 0.037. S6F showed an abundance fitness of -0.287 ± 0.038. Work on S6I yielded an abundance fitness of -0.17 ± 0.04. S6R showed an abundance fitness of -0.043 ± 0.024. S6W showed an abundance fitness of -0.291 ± 0.04. With S6M the abundance fitness was -0.043 ± 0.031. Variant S6V has an abundance fitness of -0.076 ± 0.025. Variant S6P has an abundance fitness of -0.328 ± 0.038. Variant S6T has an abundance fitness of 0.015 ± 0.033. S6Q gave an abundance fitness of -0.003 ± 0.032. Variant S6D has an abundance fitness of 0.026 ± 0.044. For S6H, the abundance fitness was -0.04 ± 0.044. For S6N, the abundance fitness was 0.016 ± 0.04. Variant P5Y has an abundance fitness of 0 ± 0.051. In the case of P5T, the abundance fitness is reported as 0.043 ± 0.03. P5V showed an abundance fitness of -0.047 ± 0.025. P5S showed an abundance fitness of -0.007 ± 0.025. With P5W the abundance fitness was -0.095 ± 0.044. With Q7L the abundance fitness was -0.743 ± 0.033. Q7F showed an abundance fitness of -0.713 ± 0.064. Q7M gave an abundance fitness of -0.12 ± 0.034. In the case of Q7H, the abundance fitness is reported as -0.301 ± 0.045. In the case of Q7T, the abundance fitness is reported as -0.488 ± 0.035. In the case of Q7S, the abundance fitness is reported as -0.45 ± 0.033. For Q7G, the abundance fitness was -0.457 ± 0.029. In the case of Q7I, the abundance fitness is reported as -0.748 ± 0.075. Q7K showed an abundance fitness of -0.227 ± 0.032. With Q7C the abundance fitness was -0.574 ± 0.042. Work on Q7Y yielded an abundance fitness of -0.777 ± 0.068. With Q7D the abundance fitness was -0.07 ± 0.048. For Q7N, the abundance fitness was -0.331 ± 0.049. Work on Q7A yielded an abundance fitness of -0.211 ± 0.031. Q7E showed an abundance fitness of -0.006 ± 0.033. With Q7W the abundance fitness was -0.803 ± 0.051. Work on Q7P yielded an abundance fitness of -0.666 ± 0.057. For Q7V, the abundance fitness was -0.631 ± 0.032. Work on K13H yielded an abundance fitness of -0.13 ± 0.065. K13S gave an abundance fitness of -0.179 ± 0.027. With K13T the abundance fitness was -0.237 ± 0.046. K13E showed an abundance fitness of -0.352 ± 0.046. Work on K13P yielded an abundance fitness of -0.895 ± 0.075. Work on K13I yielded an abundance fitness of -0.422 ± 0.052. Variant K13C has an abundance fitness of -0.356 ± 0.041. Variant K13F has an abundance fitness of -0.375 ± 0.045. With K13L the abundance fitness was -0.23 ± 0.024. K13M gave an abundance fitness of -0.103 ± 0.029. Work on K13Y yielded an abundance fitness of -0.242 ± 0.056. In the case of K13A, the abundance fitness is reported as -0.196 ± 0.03. K13V gave an abundance fitness of -0.391 ± 0.026. Work on K13N yielded an abundance fitness of -0.212 ± 0.055. Work on K13R yielded an abundance fitness of -0.003 ± 0.028. K13W showed an abundance fitness of -0.339 ± 0.034. M12L gave an abundance fitness of -0.188 ± 0.028. Work on M12D yielded an abundance fitness of -0.706 ± 0.05. With M12S the abundance fitness was -0.8 ± 0.051. For M12T, the abundance fitness was -0.849 ± 0.072. M12F showed an abundance fitness of -0.096 ± 0.035. For M12V, the abundance fitness was -0.266 ± 0.024. In the case of M12N, the abundance fitness is reported as -1 ± 0.087. M12A showed an abundance fitness of -0.658 ± 0.037. With M12Q the abundance fitness was -1.06 ± 0.087. Variant M12I has an abundance fitness of -0.165 ± 0.031. Work on M12Y yielded an abundance fitness of -0.386 ± 0.051. Variant M12K has an abundance fitness of -0.827 ± 0.095. Variant M12P has an abundance fitness of -1 ± 0.068. M12H gave an abundance fitness of -0.766 ± 0.048. M12G showed an abundance fitness of -0.757 ± 0.037. Work on M12R yielded an abundance fitness of -1.01 ± 0.052. V8P showed an abundance fitness of -0.773 ± 0.052. With V8S the abundance fitness was -0.749 ± 0.04. In the case of V8C, the abundance fitness is reported as -0.716 ± 0.057. Work on V8R yielded an abundance fitness of -0.872 ± 0.06. Work on V8Q yielded an abundance fitness of -0.947 ± 0.092. Variant V8K has an abundance fitness of -0.88 ± 0.064. Work on V8T yielded an abundance fitness of -0.523 ± 0.033. For V8M, the abundance fitness was -0.771 ± 0.058. Variant V8H has an abundance fitness of -0.878 ± 0.052. Work on V8N yielded an abundance fitness of -0.973 ± 0.069. In the case of V8W, the abundance fitness is reported as -1.05 ± 0.083. Variant V8I has an abundance fitness of -0.524 ± 0.038. Variant V8L has an abundance fitness of -0.775 ± 0.044. In the case of V8D, the abundance fitness is reported as -0.783 ± 0.085. For V8Y, the abundance fitness was -1.01 ± 0.086. With V8F the abundance fitness was -0.861 ± 0.051. V8G showed an abundance fitness of -0.851 ± 0.049. W11G showed an abundance fitness of -0.675 ± 0.04. W11C gave an abundance fitness of -0.834 ± 0.072. W11F showed an abundance fitness of -0.333 ± 0.048. Variant W11A has an abundance fitness of -0.95 ± 0.051. Work on W11M yielded an abundance fitness of -0.943 ± 0.058. Variant W11E has an abundance fitness of -0.59 ± 0.06. Variant W11R has an abundance fitness of -0.716 ± 0.024. W11S gave an abundance fitness of -0.782 ± 0.036. Variant W11D has an abundance fitness of -0.65 ± 0.055. With W11H the abundance fitness was -0.738 ± 0.049. W11P showed an abundance fitness of -0.854 ± 0.066. With W11Q the abundance fitness was -0.681 ± 0.054. W11K showed an abundance fitness of -0.564 ± 0.046. Variant W11N has an abundance fitness of -0.674 ± 0.086. In the case of W11L, the abundance fitness is reported as -0.896 ± 0.041. With W11V the abundance fitness was -0.749 ± 0.038. W11Y showed an abundance fitness of -0.425 ± 0.047. W11I gave an abundance fitness of -1 ± 0.11.
